The results in this text go back to publication PMC9279507.

Assay [1] concerns the target GST-tagged TgIST-R2 (Toxoplasma gondii (type I strain GT1)). Put plainly: BLI; GST-tagged TgIST-R2 loaded on anti-GST biosensors, pSTAT1d or pSTAT1d-linker-R2 in solution; kinetic buffer (ForteBio), 25 °C; apparent avidity, 1:2 model. Background: In BLI a coated tip is dipped into the sample, and binding shifts an interference pattern.
Assay [2] addresses phosphorylated STAT1 dimer (pSTAT1d), STAT1 core domain S132-H713 (human) (UniProt P42224). Put plainly: BLI; His-tagged pSTAT1d or STAT1 monomer loaded on Ni-NTA biosensors, TgIST-R2 proteins in solution; kinetic buffer (ForteBio), 25 °C; 1:1 model for the constant.
In assay [3] the target is STAT1cc (STAT1 core fragment, A656C and N658C, locked dimer), tag-free (UniProt P42224). The assay is described as follows: nickel affinity copurification, SDS-PAGE, Coomassie blue band quantification. Particulars: parent: est. 1.0; read off a plot.

In the case of “phosphorylated STAT1 dimer (pSTAT1d), STAT1 core domain S132-H713 (from UniProt P42224 132-713) (domain or fragment)”, the Kd in assay [1] was 22 nM. Substance “TgIST-R2 peptide after GST removal (domain or fragment)” returned a Kd in assay [2] of 330 nM. Consider 6XHis-tagged TgIST-R2 (G365-S420) L383A, for which the ratio to parent in assay [3] was 0.01. For the substance 6XHis-tagged TgIST-R2 (G365-S420) Q392A, the ratio to parent in assay [3] amounted to 0.91. As for 6XHis-tagged TgIST-R2 (G365-S420) T381A, the ratio to parent in assay [3] was determined as 0.38. On the same count and under the same terms, under 6XHis-tagged TgIST-R2 (G365-S420) D384A stands 0.57; under 6XHis-tagged TgIST-R2 (G365-S420) Q391A, 1.1.

As for 6XHis-tagged TgIST-R2 (G365-S420) Q378A, in assay [3], the ratio to parent came out at 0.83.
